What was measured:
Bcl-xL = molecular target: T1, Bcl-xL (Homo sapiens, UniProt Q07817, DEL45-84); experiment: Isothermal titration calorimetry of BAD-GST with Bcl-xL; assay type: binding; conditions: ITC, 25°C; Bcl-xL (100 μM) titrated into BAD-GST (10–18 μM), 4 μL injections, BAD buffer pH 8.5; average of two independent experiments
T1 construct: made in house
Experimental: Exon 1 of human bcl-xl lacking the C-terminal residues 189–233 was obtained from Stanley Korsmeyer (Addgene plasmid 8755) and site-directed mutagenesis was performed to create the Δ45–84, Δ210–233 variant. Bcl-xL was expressed and purified using a modified procedure described previously. Briefly, Bcl-xL was purified by nickel affinity chromatography and dialyzed against potassium phosphate buffer (20 mM, pH 7.4) containing NaCl (50 mM), EDTA (1 mM), and DTT (10 mM). Protein was applied to a Superdex 200 10/30 HR size-exclusion column, at a flow rate of 0.02 mL/min, to remove aggregate and oligomers prior to binding assays.
Isothermal titration calorimetry was performed at 25°C using a MicroCal VP-ITC (GE Healthcare) instrument. Bcl-xL (100 μM) in BAD buffer (0.1 M Tris, 0.1 M KCl, 0.5 M arginine, 2.5 mM CHAPS, 5 mM TCEP, 10% glycerol, pH 8.5) was titrated into the calorimeter cell containing size-exclusion chromatography purified BAD-GST (10–18 μM) in 4 μL injections. A 21-residue phosphorylated peptide containing the BH3 domain of BAD was synthesized and purified to >95% by Peptide2.0 (pBH3 = NLWAAQRYGRELRRM(p)SDKFVD). […] Data were analyzed using Origin software.

glucokinase (GCK) = experiment: Chemical cross-linking (dimethyl pimelimidate) with GCK; assay type: binding, human; conditions: DMP, 50-fold molar excess, room temperature 1 h; 1:1 mixture, 40 μM protein; SDS-PAGE
Experimental: Protein samples were cross-linked with dimethyl pimelimidate (DMP). Aqueous stocks of cross-linkers were added to protein samples in a 50-fold molar excess and incubated at room temperature 1 h. Mixtures contained 20 μM protein (GCK or BAD) or 40 μM protein (1:1 mixture of glucokinase and BAD) in BAD buffer (0.1 M Tris, 0.1 M KCl, 0.5 M arginine, 2.5 mM CHAPS, 5 mM TCEP, 10% glycerol, pH 8.5). Reactions were immediately separated on SDS-PAGE and visualized with Coomassie blue staining.

[1] = Circular dichroism spectroscopy (secondary structure); assay type: physicochemical; conditions: far UV CD, 25°C, pH 7.8, 3–15 μM, CDPro
Experimental: Proteins were dialyzed overnight into potassium phosphate buffer (50 mM, pH 7.8) containing KCl (50 mM), glycerol (5% v/v), and TCEP (4 mM). CD spectra were recorded on an AVIV 202 CD spectrometer at 25°C with protein concentrations ranging from 3–15 μM. Spectra were recorded from 200–260 nm in 10 mm pathlength cuvettes using a 1 nm step resolution and 3 s integration time. Three scans were recorded per sample, averaged, and baseline subtracted with appropriate buffer controls. CD signals were converted to molar ellipticity and deconvoluted using CDPro Software.

[2] = Analytical ultracentrifugation sedimentation velocity (oligomerization, shape); assay type: physicochemical; conditions: 20°C, 50,000 x g
Experimental: Sedimentation velocity experiments were conducted with an Optima XLI Ultracentrifuge (Beckman Coulter) using a four-hole rotor with three 420 μL samples in standard double-sector Epon centerpieces equipped with sapphire windows. Absorbance and interference data were collected simultaneously. Size-exclusion purified proteins were concentrated to OD280 nm = 0.3–1.0 prior to centrifugation. For complex formation, proteins were mixed in a 1:1 molar ratio in BAD buffer (0.1 M Tris, 0.1 M KCl, 0.5 M arginine, 2.5 mM CHAPS, 5 mM TCEP, 10% glycerol, pH 8.5) and incubated on ice 30 min prior to the start of the experiment. Experiments were carried out at 20°C and 50,000 x g. Data were analyzed with Ultrascan III software using a minimum of 70 scans per sample for analysis. Van Holde-Weischet analysis was performed to obtain S20,W values.

[3] = Aggregation in refolding buffers (spin-filter assay); assay type: physicochemical; conditions: CHAPS (2.5 mM) and arginine (0.5 M)
Experimental: To determine buffer conditions for BAD-GST refolding, we made use of a spin-filter assay developed by Bondos and Bicknell. Purified protein was collected after size-exclusion chromatography and diluted into test buffers containing various stabilizers and detergents, including Triton-X (0.2%), CHAPS (1.25–6.0 mM), arginine (0.1–0.6 M), glycerol (20%) or urea (1.5 M). After overnight incubation at 4°C, diluted protein was filtered across a 100,000 MWCO microconcentrator (Amicon Ultra 0.5, EMD Millipore) at 14,000 x g. Concentrate was considered aggregated protein, while flow through was considered non-aggregated protein. Concentrate and flow through were resuspended to equal volumes and analyzed via SDS-PAGE; protein was visualized with SYPRO Ruby stain on a fluorescence imaging scanner. ImageJ software was used to measure ratios of non-aggregated to aggregated protein [26].

[4] = Proteolysis and aggregation of recombinant BAD produced under native conditions; assay type: physicochemical
Experimental: Under native conditions, cell pellet was resuspended and lysed in HEPES buffer (50 mM, pH7.6) containing NaCl (50 mM), imidazole (25 mM), glycerol (5%), and DTT (5 mM). PMSF, benzamidine, a protease inhibitor cocktail (Pierce), and BSA (0.1 mg/mL) were added to the lysis buffer in attempts to reduce protein degradation. Clarified lysate was applied to a HisTrap affinity column and following purification, purified BAD-GST was applied to a Superdex 200 10/30 HR size-exclusion column, at a flow rate of 0.02 mL/min.
Protein samples were excised from SDS-PAGE gels and exposed to trypsin digestion prior to analysis by mass spectroscopy. MALDI-TOF was performed on a Shimadzu Axima CFP MALDI-TOF in positive ion, reflectron mode. Linear trap quadripole (LTQ) Orbitrap MS was performed on a Thermo LTQ Orbitrap Velos HPLC-nESI-LIT-Orbitrap.
(§1) To facilitate biochemical characterization of the BAD:GCK complex, we sought a method to produce functional, recombinant human BAD. Several groups have used microbial hosts to produce BAD, however, functional characterization of the resulting protein was limited.

[5] = produced in Escherichia coli; ref [30]; cited from earlier work
Excerpt: as §1

T1 sequence (Q07817 with tags, fused parts or gaps DEL45-84): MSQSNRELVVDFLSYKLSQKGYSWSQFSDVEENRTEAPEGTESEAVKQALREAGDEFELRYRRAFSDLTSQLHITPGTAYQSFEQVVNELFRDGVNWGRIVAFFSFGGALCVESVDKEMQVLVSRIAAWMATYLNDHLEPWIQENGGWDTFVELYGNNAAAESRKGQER

Kd (Bcl-xL): 7 nM
B1: BAD-GST: recombinant human BAD with N-terminal hexahistidine tag and C-terminal GST fusion, TEV consensus sequence between (protein)
chain: MFQIPEFEPSEQEDSSSAERGLGPSPAGDGPSGSGKHHRQAPGLLWDASHQQEQPTSSSHHGGAGAVEIRSRHSSYPAGTEDDEGMGEEPSPFRGRSRSAPPNLWAAQRYGRELRRMSDEFVDSFKKGLPRPKSAGTATQMRQSSSWTRVFQSWWDRNLGRGSSAPSQ
modifications: left off: His6, N-terminal, state not stated | GST, C-terminal, kept
Complex with GCK by chemical cross-linking (glucokinase (GCK)): does not support the formation of a BAD-GST:GCK complex | Random coil content [1]: 30% | α-helical content [1]: 10% | β-sheet content [1]: 37% | Molecular weight from sedimentation velocity (oligomerization state) ([2]; predicted monomer BAD-GST 47 kDa, dimer): 98 kDa | Frictional ratio f/f0 ([2]; sedimentation velocity, unity = compact sphere): 3.9 | Aggregation, effect of refolding additives [3]: essential to prevent aggregation of recombinant BAD | Proteolysis during recombinant production ([4]; MALDI-TOF, protease inhibitors failed to alleviate degradation): extensive C-terminal proteolysis | Aggregation when produced under native conditions ([4]; native conditions, E. coli): leads to aggregation of the protein | Proteolysis of recombinant BAD [5]: highly susceptible to proteolysis

From publication PMC5300155, “Biochemical and biophysical investigations of the interaction between human glucokinase and pro-apoptotic BAD” (PLoS ONE, 2017)
